Source: patent US12679878B2, “CRF2 receptor agonists and their use in therapy” (SANOFI, priority 2020, dated 2026)
Starred links: 1 amine or outer side, 2 acyl side, 3 side chain; linkers in the order of their positions; H or OH if unused. Non-standard residues stand in square brackets, D forms with d. Groups on a side chain read outwards from the residue. No end group written: not given here. *: point of attachment. C18 diacid = O=C(O)CCCCCCCCCCCCCCCCC(=O)*; γGlu = O=C(O)[C@H](CCC(=O)[*:2])N[*:1]; Palmitoyl = CCCCCCCCCCCCCCCC(=O)*; AEEA = NCCOCCOCC(=O)O; Aib = CC(C)(N)C(=O)O

Target: human corticotropin-releasing factor 2α (CRF2 α receptor) (human), Q13324
Assay: cell-based or functional assay

Sequence of human corticotropin-releasing factor 2α (CRF2 α receptor) (human), Q13324 (Q13324 20-411): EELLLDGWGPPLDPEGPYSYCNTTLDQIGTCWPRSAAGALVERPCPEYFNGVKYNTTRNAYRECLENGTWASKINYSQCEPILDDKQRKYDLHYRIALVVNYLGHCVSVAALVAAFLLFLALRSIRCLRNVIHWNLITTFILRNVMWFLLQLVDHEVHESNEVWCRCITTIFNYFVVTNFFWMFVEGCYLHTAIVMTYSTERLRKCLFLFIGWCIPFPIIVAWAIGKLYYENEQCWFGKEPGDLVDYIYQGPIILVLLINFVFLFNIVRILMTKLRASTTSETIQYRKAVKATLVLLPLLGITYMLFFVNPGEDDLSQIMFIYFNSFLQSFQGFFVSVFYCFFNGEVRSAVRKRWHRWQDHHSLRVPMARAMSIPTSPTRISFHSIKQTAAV

Row | EC50 [nM], 0% HSA [nM] | EC50 [nM], 0.1% HSA [nM] | Binder
1 | 1.27 | 61.1 | IVLSLDVPIKLK([AEEA-AEEA-γGlu-C18 diacid])QILLKQERQKKQREQAEKNKQILEQV-NH2 (N-terminus assumed; SMILES CC[C@H](C)[C@H](N)C(=O)N[C@H](C(=O)N[C@@H](CC(C)C)C(=O)N[C@@H](CO)C(=O)N[C@@H](CC(C)C)C(=O)N[C@@H](CC(=O)O)C(=O)N[C@H](C(=O)N1CCC[C@H]1C(=O)N[C@H](C(=O)N[C@@H](CCCCN)C(=O)N[C@@H](CC(C)C)C(=O)N[C@@H](CCCCNC(=O)COCCOCCNC(=O)COCCOCCNC(=O)CC[C@H](NC(=O)CCCCCCCCCCCCCCCCC(=O)O)C(=O)O)C(=O)N[C@@H](CCC(N)=O)C(=O)N[C@H](C(=O)N[C@@H](CC(C)C)C(=O)N[C@@H](CC(C)C)C(=O)N[C@@H](CCCCN)C(=O)N[C@@H](CCC(N)=O)C(=O)N[C@@H](CCC(=O)O)C(=O)N[C@@H](CCCNC(=N)N)C(=O)N[C@@H](CCC(N)=O)C(=O)N[C@@H](CCCCN)C(=O)N[C@@H](CCCCN)C(=O)N[C@@H](CCC(N)=O)C(=O)N[C@@H](CCCNC(=N)N)C(=O)N[C@@H](CCC(=O)O)C(=O)N[C@@H](CCC(N)=O)C(=O)N[C@@H](C)C(=O)N[C@@H](CCC(=O)O)C(=O)N[C@@H](CCCCN)C(=O)N[C@@H](CC(N)=O)C(=O)N[C@@H](CCCCN)C(=O)N[C@@H](CCC(N)=O)C(=O)N[C@H](C(=O)N[C@@H](CC(C)C)C(=O)N[C@@H](CCC(=O)O)C(=O)N[C@@H](CCC(N)=O)C(=O)N[C@H](C(N)=O)C(C)C)[C@@H](C)CC)[C@@H](C)CC)[C@@H](C)CC)C(C)C)C(C)C) [SEQ ID NO: 120]
2 | 0.33 | 9.74 | IVLSLDVPIKLK([AEEA-AEEA-γGlu-C18 diacid])QILLEQARQK[Aib]QRAQAEKNKRILERV-NH2 (N-terminus assumed; SMILES CC[C@H](C)[C@H](N)C(=O)N[C@H](C(=O)N[C@@H](CC(C)C)C(=O)N[C@@H](CO)C(=O)N[C@@H](CC(C)C)C(=O)N[C@@H](CC(=O)O)C(=O)N[C@H](C(=O)N1CCC[C@H]1C(=O)N[C@H](C(=O)N[C@@H](CCCCN)C(=O)N[C@@H](CC(C)C)C(=O)N[C@@H](CCCCNC(=O)COCCOCCNC(=O)COCCOCCNC(=O)CC[C@H](NC(=O)CCCCCCCCCCCCCCCCC(=O)O)C(=O)O)C(=O)N[C@@H](CCC(N)=O)C(=O)N[C@H](C(=O)N[C@@H](CC(C)C)C(=O)N[C@@H](CC(C)C)C(=O)N[C@@H](CCC(=O)O)C(=O)N[C@@H](CCC(N)=O)C(=O)N[C@@H](C)C(=O)N[C@@H](CCCNC(=N)N)C(=O)N[C@@H](CCC(N)=O)C(=O)N[C@@H](CCCCN)C(=O)NC(C)(C)C(=O)N[C@@H](CCC(N)=O)C(=O)N[C@@H](CCCNC(=N)N)C(=O)N[C@@H](C)C(=O)N[C@@H](CCC(N)=O)C(=O)N[C@@H](C)C(=O)N[C@@H](CCC(=O)O)C(=O)N[C@@H](CCCCN)C(=O)N[C@@H](CC(N)=O)C(=O)N[C@@H](CCCCN)C(=O)N[C@@H](CCCNC(=N)N)C(=O)N[C@H](C(=O)N[C@@H](CC(C)C)C(=O)N[C@@H](CCC(=O)O)C(=O)N[C@@H](CCCNC(=N)N)C(=O)N[C@H](C(N)=O)C(C)C)[C@@H](C)CC)[C@@H](C)CC)[C@@H](C)CC)C(C)C)C(C)C) [SEQ ID NO: 123]

More lines, now with the values behind:

Row | Binder | EC50 [nM], 0% HSA [nM] | EC50 [nM], 0.1% HSA [nM]
3 | IVLSLDVPIKLK([AEEA-AEEA-γGlu-C18 diacid])QILLKQERQKK[Aib]RQKAEKNKQILAQV-NH2 (N-terminus assumed; SMILES CC[C@H](C)[C@H](N)C(=O)N[C@H](C(=O)N[C@@H](CC(C)C)C(=O)N[C@@H](CO)C(=O)N[C@@H](CC(C)C)C(=O)N[C@@H](CC(=O)O)C(=O)N[C@H](C(=O)N1CCC[C@H]1C(=O)N[C@H](C(=O)N[C@@H](CCCCN)C(=O)N[C@@H](CC(C)C)C(=O)N[C@@H](CCCCNC(=O)COCCOCCNC(=O)COCCOCCNC(=O)CC[C@H](NC(=O)CCCCCCCCCCCCCCCCC(=O)O)C(=O)O)C(=O)N[C@@H](CCC(N)=O)C(=O)N[C@H](C(=O)N[C@@H](CC(C)C)C(=O)N[C@@H](CC(C)C)C(=O)N[C@@H](CCCCN)C(=O)N[C@@H](CCC(N)=O)C(=O)N[C@@H](CCC(=O)O)C(=O)N[C@@H](CCCNC(=N)N)C(=O)N[C@@H](CCC(N)=O)C(=O)N[C@@H](CCCCN)C(=O)N[C@@H](CCCCN)C(=O)NC(C)(C)C(=O)N[C@@H](CCCNC(=N)N)C(=O)N[C@@H](CCC(N)=O)C(=O)N[C@@H](CCCCN)C(=O)N[C@@H](C)C(=O)N[C@@H](CCC(=O)O)C(=O)N[C@@H](CCCCN)C(=O)N[C@@H](CC(N)=O)C(=O)N[C@@H](CCCCN)C(=O)N[C@@H](CCC(N)=O)C(=O)N[C@H](C(=O)N[C@@H](CC(C)C)C(=O)N[C@@H](C)C(=O)N[C@@H](CCC(N)=O)C(=O)N[C@H](C(N)=O)C(C)C)[C@@H](C)CC)[C@@H](C)CC)[C@@H](C)CC)C(C)C)C(C)C) [SEQ ID NO: 119] | 0.13 | 4.97
4 | FTLSLDVPTKIK([γGlu-Palmitoyl])QKLLKQEKQRKQKQQAKTNAKILARV-NH2 (N-terminus assumed; SMILES CCCCCCCCCCCCCCCC(=O)N[C@@H](CCC(=O)NCCCC[C@H](NC(=O)[C@@H](NC(=O)[C@H](CCCCN)NC(=O)[C@@H](NC(=O)[C@@H]1CCCN1C(=O)[C@@H](NC(=O)[C@H](CC(=O)O)NC(=O)[C@H](CC(C)C)NC(=O)[C@H](CO)NC(=O)[C@H](CC(C)C)NC(=O)[C@@H](NC(=O)[C@@H](N)Cc1ccccc1)[C@@H](C)O)C(C)C)[C@@H](C)O)[C@@H](C)CC)C(=O)N[C@@H](CCC(N)=O)C(=O)N[C@@H](CCCCN)C(=O)N[C@@H](CC(C)C)C(=O)N[C@@H](CC(C)C)C(=O)N[C@@H](CCCCN)C(=O)N[C@@H](CCC(N)=O)C(=O)N[C@@H](CCC(=O)O)C(=O)N[C@@H](CCCCN)C(=O)N[C@@H](CCC(N)=O)C(=O)N[C@@H](CCCNC(=N)N)C(=O)N[C@@H](CCCCN)C(=O)N[C@@H](CCC(N)=O)C(=O)N[C@@H](CCCCN)C(=O)N[C@@H](CCC(N)=O)C(=O)N[C@@H](CCC(N)=O)C(=O)N[C@@H](C)C(=O)N[C@@H](CCCCN)C(=O)N[C@H](C(=O)N[C@@H](CC(N)=O)C(=O)N[C@@H](C)C(=O)N[C@@H](CCCCN)C(=O)N[C@H](C(=O)N[C@@H](CC(C)C)C(=O)N[C@@H](C)C(=O)N[C@@H](CCCNC(=N)N)C(=O)N[C@H](C(N)=O)C(C)C)[C@@H](C)CC)[C@@H](C)O)C(=O)O) [SEQ ID NO: 12] | 0.09 | –
5 | IVLSLDVPIKLK([AEEA-AEEA-γGlu-C18 diacid])QILLKQERQKKQRQQAEKNKQILAQV-NH2 (N-terminus assumed; SMILES CC[C@H](C)[C@H](N)C(=O)N[C@H](C(=O)N[C@@H](CC(C)C)C(=O)N[C@@H](CO)C(=O)N[C@@H](CC(C)C)C(=O)N[C@@H](CC(=O)O)C(=O)N[C@H](C(=O)N1CCC[C@H]1C(=O)N[C@H](C(=O)N[C@@H](CCCCN)C(=O)N[C@@H](CC(C)C)C(=O)N[C@@H](CCCCNC(=O)COCCOCCNC(=O)COCCOCCNC(=O)CC[C@H](NC(=O)CCCCCCCCCCCCCCCCC(=O)O)C(=O)O)C(=O)N[C@@H](CCC(N)=O)C(=O)N[C@H](C(=O)N[C@@H](CC(C)C)C(=O)N[C@@H](CC(C)C)C(=O)N[C@@H](CCCCN)C(=O)N[C@@H](CCC(N)=O)C(=O)N[C@@H](CCC(=O)O)C(=O)N[C@@H](CCCNC(=N)N)C(=O)N[C@@H](CCC(N)=O)C(=O)N[C@@H](CCCCN)C(=O)N[C@@H](CCCCN)C(=O)N[C@@H](CCC(N)=O)C(=O)N[C@@H](CCCNC(=N)N)C(=O)N[C@@H](CCC(N)=O)C(=O)N[C@@H](CCC(N)=O)C(=O)N[C@@H](C)C(=O)N[C@@H](CCC(=O)O)C(=O)N[C@@H](CCCCN)C(=O)N[C@@H](CC(N)=O)C(=O)N[C@@H](CCCCN)C(=O)N[C@@H](CCC(N)=O)C(=O)N[C@H](C(=O)N[C@@H](CC(C)C)C(=O)N[C@@H](C)C(=O)N[C@@H](CCC(N)=O)C(=O)N[C@H](C(N)=O)C(C)C)[C@@H](C)CC)[C@@H](C)CC)[C@@H](C)CC)C(C)C)C(C)C) [SEQ ID NO: 122] | 0.04 | 1.71
6 | IVLSLDVPIKLK([AEEA-AEEA-γGlu-C18 diacid])QILLKQERQKKQREKAEKNKQILAQV-NH2 (N-terminus assumed; SMILES CC[C@H](C)[C@H](N)C(=O)N[C@H](C(=O)N[C@@H](CC(C)C)C(=O)N[C@@H](CO)C(=O)N[C@@H](CC(C)C)C(=O)N[C@@H](CC(=O)O)C(=O)N[C@H](C(=O)N1CCC[C@H]1C(=O)N[C@H](C(=O)N[C@@H](CCCCN)C(=O)N[C@@H](CC(C)C)C(=O)N[C@@H](CCCCNC(=O)COCCOCCNC(=O)COCCOCCNC(=O)CC[C@H](NC(=O)CCCCCCCCCCCCCCCCC(=O)O)C(=O)O)C(=O)N[C@@H](CCC(N)=O)C(=O)N[C@H](C(=O)N[C@@H](CC(C)C)C(=O)N[C@@H](CC(C)C)C(=O)N[C@@H](CCCCN)C(=O)N[C@@H](CCC(N)=O)C(=O)N[C@@H](CCC(=O)O)C(=O)N[C@@H](CCCNC(=N)N)C(=O)N[C@@H](CCC(N)=O)C(=O)N[C@@H](CCCCN)C(=O)N[C@@H](CCCCN)C(=O)N[C@@H](CCC(N)=O)C(=O)N[C@@H](CCCNC(=N)N)C(=O)N[C@@H](CCC(=O)O)C(=O)N[C@@H](CCCCN)C(=O)N[C@@H](C)C(=O)N[C@@H](CCC(=O)O)C(=O)N[C@@H](CCCCN)C(=O)N[C@@H](CC(N)=O)C(=O)N[C@@H](CCCCN)C(=O)N[C@@H](CCC(N)=O)C(=O)N[C@H](C(=O)N[C@@H](CC(C)C)C(=O)N[C@@H](C)C(=O)N[C@@H](CCC(N)=O)C(=O)N[C@H](C(N)=O)C(C)C)[C@@H](C)CC)[C@@H](C)CC)[C@@H](C)CC)C(C)C)C(C)C) [SEQ ID NO: 121] | 0.73 | 41.3
